Reference: US20190106460A1 (published 2019)
Starred links: 1 amine or outer side, 2 acyl side, 3 side chain; linkers in the order of their positions; H or OH if unused. Non-standard residues stand in square brackets, D forms with d. No end group written: not given here. *: point of attachment. Tyr(Me) = O-methyl-L-tyrosine, COc1ccc(C[C@H](N[*:1])C(=O)[*:2])cc1; Phe(4-NO2) = N[C@@H](Cc1ccc([N+](=O)[O-])cc1)C(=O)O; 2,4,6‑trimethylbenzoyl = Cc1cc(C)c(C(=O)*)c(C)c1; Benzenesulfonyl(4-OMe) = COc1ccc(S(=O)(=O)*)cc1; Benzoyl(4-tBu) = CC(C)(C)c1ccc(C(=O)*)cc1; Phe(3-F) = N[C@@H](Cc1cccc(F)c1)C(=O)O; Phe(4-F) = N[C@@H](Cc1ccc(F)cc1)C(=O)O; 1Nal = N[C@@H](Cc1cccc2ccccc12)C(=O)O; Phe(2-F) = N[C@@H](Cc1ccccc1F)C(=O)O; Maleoyl = O=C(/C=C\C(=O)[*:2])[*:1]; Benzoyl(4-Br) = O=C(c1ccc(Br)cc1)*; 2Naphthoyl = O=C(c1ccc2ccccc2c1)*; Benzoyl(4-Me) = Cc1ccc(C(=O)*)cc1; pS = N[C@@H](COP(=O)(O)O)C(=O)O; Suc = O=C(CCC(=O)[*:2])[*:1]; Hexanoyl = CCCCCC(=O)*; Bz = O=C(c1ccccc1)*; Ahx = NCCCCCC(=O)O

B1: Suc-QGF(3F)F(4NO2)E-NH2 (peptide)
peptide: QGXXE
modifications: N-terminal Suc (succinyl) cap; position 3 F(3F); position 4 F(4NO2); C-terminal amide
B2: Suc-EGF(2F)Y(Me)E-NH2 (peptide)
peptide: Suc-EG[Phe(2-F)][Tyr(Me)]E-NH2
SMILES: COc1ccc(C[C@H](NC(=O)[C@H](Cc2ccccc2F)NC(=O)CNC(=O)[C@H](CCC(=O)O)NC(=O)CCC(=O)O)C(=O)N[C@@H](CCC(=O)O)C(N)=O)cc1
B3: 4-(MeO)PhSO2-dEGF(3F)WE-Ahx-K(NHCO-CH2CH2Ch(CH3)2)-NH2 (peptide)
peptide: {Benzenesulfonyl(4-OMe)}-[dD]EG[Phe(3-F)]WE[Ahx]K-NH2
modifications: not fully specified (residue 8); printed as 4-(MeO)PhSO2-dEGF(3F)WE-Ahx-K(NHCO-CH2CH2Ch(CH3)2)-NH2
notes: also called UBP068
B4: Suc-EGF(2F)F(4NO2)E-NH2 (peptide)
peptide: Suc-EG[Phe(2-F)][Phe(4-NO2)]E-NH2
SMILES: NC(=O)[C@H](CCC(=O)O)NC(=O)[C@H](Cc1ccc([N+](=O)[O-])cc1)NC(=O)[C@H](Cc1ccccc1F)NC(=O)CNC(=O)[C@H](CCC(=O)O)NC(=O)CCC(=O)O
B5: Suc-EGF(4F)F(4NO2)E-NH2 (peptide)
peptide: Suc-EG[Phe(4-F)][Phe(4-NO2)]E-NH2
SMILES: NC(=O)[C@H](CCC(=O)O)NC(=O)[C@H](Cc1ccc([N+](=O)[O-])cc1)NC(=O)[C@H](Cc1ccc(F)cc1)NC(=O)CNC(=O)[C@H](CCC(=O)O)NC(=O)CCC(=O)O
B6: Suc-EGYF(4NO2)E-NH2 (peptide)
peptide: Suc-EGY[Phe(4-NO2)]E-NH2
SMILES: NC(=O)[C@H](CCC(=O)O)NC(=O)[C@H](Cc1ccc([N+](=O)[O-])cc1)NC(=O)[C@H](Cc1ccc(O)cc1)NC(=O)CNC(=O)[C@H](CCC(=O)O)NC(=O)CCC(=O)O
B7: DpSGIFE-NH2 (peptide)
peptide: D[pS]GIFE-NH2
modifications: N-terminus assumed
SMILES: CC[C@H](C)[C@H](NC(=O)CNC(=O)[C@H](COP(=O)(O)O)NC(=O)[C@@H](N)CC(=O)O)C(=O)N[C@@H](Cc1ccccc1)C(=O)N[C@@H](CCC(=O)O)C(N)=O
B8: 4-(MeO)PhSO2-dEGF(3F)WE-Ahx-K(NHCO-Ph)-NH2 (peptide)
peptide: {Benzenesulfonyl(4-OMe)}-[dD]EG[Phe(3-F)]WE[Ahx]K-NH2
modifications: not fully specified (residue 8); printed as 4-(MeO)PhSO2-dEGF(3F)WE-Ahx-K(NHCO-Ph)-NH2
notes: also called UBP065
B9: Mal-EGF(3F)F(4NO2)E-NH2 (peptide)
peptide: Maleoyl-EG[Phe(3-F)][Phe(4-NO2)]E-NH2
SMILES: NC(=O)[C@H](CCC(=O)O)NC(=O)[C@H](Cc1ccc([N+](=O)[O-])cc1)NC(=O)[C@H](Cc1cccc(F)c1)NC(=O)CNC(=O)[C@H](CCC(=O)O)NC(=O)/C=C\C(=O)O
B10: 4-(MeO)PhSO2-dEGF(3F)WE-NH2 (peptide)
peptide: {Benzenesulfonyl(4-OMe)}-[dD]EG[Phe(3-F)]WE-NH2
SMILES: COc1ccc(S(=O)(=O)N[C@H](CC(=O)O)C(=O)N[C@@H](CCC(=O)O)C(=O)NCC(=O)N[C@@H](Cc2cccc(F)c2)C(=O)N[C@@H](Cc2c[nH]c3ccccc23)C(=O)N[C@@H](CCC(=O)O)C(N)=O)cc1
notes: also called UBP022
B11: Suc-EGF(3F)F(4NO2)E-NH2 (peptide)
peptide: Suc-EG[Phe(3-F)][Phe(4-NO2)]E-NH2
SMILES: NC(=O)[C@H](CCC(=O)O)NC(=O)[C@H](Cc1ccc([N+](=O)[O-])cc1)NC(=O)[C@H](Cc1cccc(F)c1)NC(=O)CNC(=O)[C@H](CCC(=O)O)NC(=O)CCC(=O)O
B12: Suc-EGF(4NO2)1NalE-NH2 (peptide)
peptide: Suc-EG[Phe(4-NO2)][1Nal]E-NH2
SMILES: NC(=O)[C@H](CCC(=O)O)NC(=O)[C@H](Cc1cccc2ccccc12)NC(=O)[C@H](Cc1ccc([N+](=O)[O-])cc1)NC(=O)CNC(=O)[C@H](CCC(=O)O)NC(=O)CCC(=O)O

Tests used:
[1] = molecular target: T1, Beta Transducin repeat-containing protein (βTrCP), tag cleaved and complexed with Skp1 (UniProt Q9Y297 175-605; P63208 1-163); assay: FP competition dose-response, fluorescein-IkB peptide tracer on βTrCP/Skp1 (average Ki; assay not given)
T1 construct: the FP protocol says that Ki is determined from FP dose-response curves; also called βTrCP/Skp1

Skp2 = Skp2 (UniProt Q13309 1-424, limits assumed); assay: cell-based or functional assay
Fbw7 = Fbw7 (UniProt Q969H0 263-707, limits assumed); assay: cell-based or functional assay
Chain of Fbw7 (Q969H0 263-707 limits assumed): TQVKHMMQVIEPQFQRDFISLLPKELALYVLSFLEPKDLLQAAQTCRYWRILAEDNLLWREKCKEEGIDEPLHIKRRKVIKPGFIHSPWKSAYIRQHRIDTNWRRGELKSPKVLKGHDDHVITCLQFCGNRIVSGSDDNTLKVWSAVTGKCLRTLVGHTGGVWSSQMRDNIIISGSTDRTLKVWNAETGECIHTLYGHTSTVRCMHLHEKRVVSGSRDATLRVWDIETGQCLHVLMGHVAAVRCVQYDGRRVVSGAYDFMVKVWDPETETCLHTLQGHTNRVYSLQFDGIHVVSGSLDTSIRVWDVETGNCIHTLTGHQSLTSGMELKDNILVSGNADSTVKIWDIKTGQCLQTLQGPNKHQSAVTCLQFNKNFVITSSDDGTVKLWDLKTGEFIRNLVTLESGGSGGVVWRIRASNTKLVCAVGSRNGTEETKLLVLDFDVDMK

Chain of Skp2 (Q13309 whole entry): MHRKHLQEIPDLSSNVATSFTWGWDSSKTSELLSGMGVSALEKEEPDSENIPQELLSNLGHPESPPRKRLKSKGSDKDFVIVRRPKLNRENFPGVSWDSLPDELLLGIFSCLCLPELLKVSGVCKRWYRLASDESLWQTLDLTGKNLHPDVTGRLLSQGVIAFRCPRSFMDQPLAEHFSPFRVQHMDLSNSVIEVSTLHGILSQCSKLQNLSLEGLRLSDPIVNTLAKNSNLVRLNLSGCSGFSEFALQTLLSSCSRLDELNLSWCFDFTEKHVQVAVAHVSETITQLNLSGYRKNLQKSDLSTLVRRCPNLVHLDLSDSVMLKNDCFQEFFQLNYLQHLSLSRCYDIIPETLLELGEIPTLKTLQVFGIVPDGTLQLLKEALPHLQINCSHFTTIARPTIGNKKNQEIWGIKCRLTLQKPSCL
T1 sequence (Q9Y297 175-605, chain 1 of 2): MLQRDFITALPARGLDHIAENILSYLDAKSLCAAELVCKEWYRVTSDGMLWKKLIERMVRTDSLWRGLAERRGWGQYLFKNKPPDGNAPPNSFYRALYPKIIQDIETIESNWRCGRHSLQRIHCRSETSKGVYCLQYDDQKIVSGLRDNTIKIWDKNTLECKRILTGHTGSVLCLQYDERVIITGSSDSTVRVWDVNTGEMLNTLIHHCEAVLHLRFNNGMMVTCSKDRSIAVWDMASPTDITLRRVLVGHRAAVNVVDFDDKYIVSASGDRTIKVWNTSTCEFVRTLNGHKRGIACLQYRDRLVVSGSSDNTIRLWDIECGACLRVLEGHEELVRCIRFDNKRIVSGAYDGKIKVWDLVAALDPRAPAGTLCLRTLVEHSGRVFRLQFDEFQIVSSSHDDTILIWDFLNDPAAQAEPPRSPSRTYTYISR
T1 sequence (P63208 whole entry, chain 2 of 2): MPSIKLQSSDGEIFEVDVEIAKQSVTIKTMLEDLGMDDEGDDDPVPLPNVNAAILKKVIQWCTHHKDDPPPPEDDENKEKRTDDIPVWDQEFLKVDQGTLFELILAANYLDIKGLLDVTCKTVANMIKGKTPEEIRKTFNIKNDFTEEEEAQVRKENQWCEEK

Binder | Ki [1] [nM] | % Inhibition Skp2 @ 10 µM (Skp2) [%] | % Inhibition Skp2 @ (100 µM) (Skp2) [%] | % Inhibition Fbw7 @ 10 µM (Fbw7) [%] | % Inhibition Fbw7 @ (100 µM) (Fbw7) [%]
{Benzenesulfonyl(4-OMe)}-[dD]EG[Phe(3-F)]WE[Ahx]K(4‑chlorobenzoyl)-NH2 (also called UBP060) [4-(MeO)PhSO2-dEGF(3F)WE-Ahx-K(NHCO-(4-(Cl)-Ph))-NH2] | 3.64 | – | – | – | –
{Benzenesulfonyl(4-OMe)}-[dD]EG[Phe(3-F)]WE[Ahx]K(3,5‑dichlorobenzoyl)-NH2 (also called UBP062) [4-(MeO)PhSO2-dEGF(3F)WE-Ahx-K(NHCO-(3,5-(Cl)2-Ph))-NH2] | 6.23 | – | – | – | –
{Benzenesulfonyl(4-OMe)}-[dD]EG[Phe(3-F)]WE[Ahx]K(Benzoyl(4-tBu))-NH2 (also called UBP054) [4-(MeO)PhSO2-dEGF(3F)WE-Ahx-K(NHCO-(4-(t-Bu-Ph))-NH2] | 1.94 | – | – | – | –
{Benzenesulfonyl(4-OMe)}-[dD]EG[Phe(3-F)]WE[Ahx]K(Hexanoyl)-NH2 (also called UBP063) [4-(MeO)PhSO2-dEGF(3F)WE-Ahx-K(NHCO-(CH2)4CH3)-NH2] | 5.37 | – | – | – | –
B1 | – | 0 | 0 | 0 | 0
B2 | – | 0 | 4 | 0 | 4
{4‑i‑Pr‑PhSO2}-[dD]EG[Phe(3-F)]WE-NH2 (also called UBP040) [4-i-Pr-PhSO2-dEGF(3F)WE-NH2] | 1.6 | – | – | – | –
B3 | 5.38 | – | – | – | –
{Benzenesulfonyl(4-OMe)}-[dD]EG[Phe(3-F)]WE[Ahx]K(4‑n‑propylphenylsulfonyl)-NH2 (also called UBP074) [4-(MeO)PhSO2-dEGF(3F)WE-Ahx-K(NHSO2-(4-(n-Pr)-Ph)-NH2] | 28.6 | – | – | – | –
{Benzenesulfonyl(4-OMe)}-[dD]EG[Phe(3-F)]WE[Ahx]K(4‑methoxybenzoyl)-NH2 (also called UBP066) [4-(MeO)PhSO2-dEGF(3F)WE-Ahx-K(NHCO-(4-(OMe)-Ph))-NH2] | 5.17 | – | – | – | –
Suc-EGY[1Nal]E-NH2 [Suc-EGY1NalE-NH2] | – | 0 | 6 | 1 | 5
{Benzenesulfonyl(4-OMe)}-[dD]EG[Phe(3-F)]WE[Ahx]K(phenylcarbamoyl)-NH2 [4-(MeO)PhSO2-dEGF(3F)WE-Ahx-K(NHCONH-Ph)-NH2] | 5.61 | – | – | – | –
{Benzenesulfonyl(4-OMe)}-[dD]EG[Phe(3-F)]WE[Ahx]K(1‑naphthyloxycarbonyl)-NH2 (also called UBP069) [4-(MeO)PhSO2-dEGF(3F)WE-Ahx-K(NHOCO-1-Naph)-NH2] | 11.6 | – | – | – | –
{Benzenesulfonyl(4-OMe)}-[dD]EG[Phe(3-F)]WE[Ahx]K(4‑bromophenylsulfonyl)-NH2 (also called UBP059) [4-(MeO)PhSO2-dEGF(3F)WE-Ahx-K(NHSO2-(4-(Br)-Ph))-NH2] | 2.96 | – | – | – | –
{Benzenesulfonyl(4-OMe)}-[dD]EG[Phe(3-F)]WE[Ahx]K(Benzoyl(4-Me))-NH2 (also called UBP057) [4-(MeO)PhSO2-dEGF(3F)WE-Ahx-K(NHCO-(4-(ME)-Ph))-NH2] | 2.88 | – | – | – | –
{4‑Pr‑PhSO2}-[dD]EG[Phe(3-F)]WE-NH2 (also called UBP041) [4-Pr-PhSO2-dEGF(3F)WE-NH2] | 1.77 | – | – | – | –
B4 | – | 8 | 11 | 0 | 0

Binder | Ki [1] [nM] | % Inhibition Skp2 @ 10 µM (Skp2) [%] | % Inhibition Skp2 @ (100 µM) (Skp2) [%] | % Inhibition Fbw7 @ 10 µM (Fbw7) [%] | % Inhibition Fbw7 @ (100 µM) (Fbw7) [%]
{Benzenesulfonyl(4-OMe)}-[dD]EG[Phe(3-F)]WE[Ahx]K(phenylsulfonyl)-NH2 (also called UBP073) [4-(MeO)PhSO2-dEGF(3F)WE-Ahx-K(NHSO2Ph)-NH2] | 13 | – | – | – | –
{Benzenesulfonyl(4-OMe)}-[dD]EG[Phe(3-F)]WE[Ahx]K(4‑(trifluoromethyl)benzoyl)-NH2 (also called UBP064) [4-(MeO)PhSO2-dEGF(3F)WE-Ahx-K(NHCO-(4-(CF3)-Ph))-NH2] | 6.39 | – | – | – | –
B5 | – | 0 | 0 | 0 | 0
Suc-EG[Phe(3-F)][1Nal]E-NH2 [Suc-EGF(3F)1NalE-NH2] | – | 0 | 12 | 3 | 0
{Benzenesulfonyl(4-OMe)}-[dD]EG[Phe(3-F)]WE[Ahx]K(4‑isopropylphenylsulfonyl)-NH2 (also called UBP072) [4-(MeO)PhSO2-dEGF(3F)WE-Ahx-K(NHSO2-(4-i-Pr)-Ph))-NH2] | 12.9 | – | – | – | –
B6 | – | 11 | 31 | 0 | 0
B7 | – | 8 | 13 | 0 | 0
{Benzenesulfonyl(4-OMe)}-[dD]EG[Phe(3-F)]WE[Ahx]K(2Naphthoyl)-NH2 (also called UBP055) [4-(MeO)PhSO2-dEGF(3F)WE-Ahx-K(NHCO-2-Naph)-NH2] | 1.85 | – | – | – | –
{Benzenesulfonyl(4-OMe)}-[dD]EG[Phe(3-F)]WE[Ahx]K(Benzoyl(4-Br))-NH2 (also called UBP058) [4-(MeO)PhSO2-dEGF(3F)WE-Ahx-K(NHCO-(4-(Br)-Ph))-NH2] | 3.35 | – | – | – | –
{Benzenesulfonyl(4-OMe)}-[dD]EG[Phe(3-F)]WE[Ahx]K(4‑(dimethylamino)benzoyl)-NH2 (also called UBP071) [4-(MeO)PhSO2 dEGF(3F)WE-Ahx-K(NHCO-(4-(Me2N)-Ph))-NH2] | 9.51 | – | – | – | –
B8 | 5.94 | – | – | – | –
{Benzenesulfonyl(4-OMe)}-[dD]EG[Phe(3-F)]WE[Ahx]K(2,4,6‑trimethylbenzoyl)-NH2 (also called UBP056) [4-(MeO)PhSO2-dEGF(3F)WE-Ahx-K(NHCO-(2,4,6-(Me)3-Ph))-NH2] | 3.39 | – | – | – | –
B9 | – | 0 | 14 | 0 | 18
B10 | 5.78 | – | – | – | –
B11 | – | 0 | 3 | 0 | 2
{Benzenesulfonyl(4-OMe)}-[dD]EG[Phe(3-F)]WE[Ahx]K(Bz)-NH2 (also called UBP061) [4-(MeO)PhSO2-dEGF(3F)WE-Ahx-K(NHCOPh)-NH2] | 3.1 | – | – | – | –
B12 | – | 12 | 6 | 14 | 28
